# In article PMC5207764:
# B1: Vibrio cholerae minor pilin TcpB (natural protein)
# chain: MRKYQQGVGLLEAILASAVLGMALVAAGSYYKREAELMIKSSNAFDVIELSSQIQRYASLSKINNRTNPILKDNKAKEFKDADLKWLKLENCLTAGDVPTTGNNNDLQDQFIACDADYRKGDLSYFGSQFEFSTYVHPSNPEIQRQIKQVVSYFQYRGMERAFIGDAAGYVISEAKKKGFSAQDYRIVLIEPDRVGYFESNVISYEEFIENPSARENFLLKATKDRTLALAVSLAQTGEIAMQRDGSVAFLEDTELCWDTAAGSAKSCLSVRYDTVGNKTELDLKQIDVVSAKGLSFESDGKTKTPVVSTYETFQDGGRAKTINAIECPTGLNNRFAAVVSSFSTAGQNANFSSESAKDSQGTTQKDGSKGPHALLSGISLNWTLTNKVWDVTASIGIESGILPTSGIDSGSLLRNPKSLSFIAFQWCEN
# Target: Vibrio cholerae major pilin TcpA with a His181Ala substitution, assembled in purified TCP^H181A pili (V. cholerae)
binder,measurement,value
B1,molar ratio TcpA:TcpB in purified pili (TcpA per TcpB),7000
